The values below come from the RNAGym collection of RNA variant scans (doi:10.1093/nar/gkz1192).

First the molecules themselves.
B1: CPEB3 Ribozyme (parent)
chain: UAACAGGGGGCCACAGCAGAAGCGUUCACGUCGCAGCCCCUGUCAGAUUCUGGUGAAUCUGCGAAUUCUGCUGUAUAUCUC

The variants in the series derive from B1. The series is described as follows: self-cleavage, relative activity (ratio to wild type); higher = more cleavage; in vitro, sequencing. The gist of the method:
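Barcoded CPEB3 ribozyme mutants, produced by rounds of error-prone PCR, self-cleaved while being transcribed with T7 RNA polymerase for 5 hours at 37°C and during a subsequent 15 min DNase I step before EDTA was added. Sequencing of template-switched cDNA on Illumina gave cleaved and total reads, and DNA sequencing assigned barcodes to variants. Each variant's relative activity is its cleaved/total read fraction divided by the unmutated ribozyme's fraction, averaged across three batches. A variant needed a minimum of 5 reads.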
Turning to CAACAGGGGGCCACAGCAGAAGCGUUCACGUCGCAGCCCCUGUCAGAUUCCGGUGAAUCUGCGAAUUCUGCUGUAUAUCUC [U1C U51C], the self-cleavage was 0.7.

For CAACAGGGGGCCACAGCAGAAGCGUUCACGUCGCAGCCCCUGUCAGAUUCGGGUGAAUCUGCGAAUUCUGCUGUAUAUCUC [U1C U51G], the self-cleavage worked out at 0.97. As to CAACAGGGGGCCACAGCAGAAGCGUUCACGUCGCAGCCCCUGUCAGAUUCAGGUGAAUCUGCGAAUUCUGCUGUAUAUCUC [U1C U51A], the self-cleavage was determined as 0.8. Regarding CAACAGGGGGCCACAGCAGAAGCGCUCACGUCGCAGCCCCUGUCAGAUUCUGGUGAAUCUGCGAAUUCUGCUGUAUAUCUC [U1C U25C], the self-cleavage was determined as 0.32. For CAACAGGGGGCCACAGCAGAAGCGGUCACGUCGCAGCCCCUGUCAGAUUCUGGUGAAUCUGCGAAUUCUGCUGUAUAUCUC [U1C U25G], the self-cleavage came to 0.22.

As to CAACAGGGGGCCACAGCAGAAGCGAUCACGUCGCAGCCCCUGUCAGAUUCUGGUGAAUCUGCGAAUUCUGCUGUAUAUCUC [U1C U25A], the self-cleavage came to 0.37.

Consider CAACAGGGGGCCACAGCAGAAGCGUUCACGUCGCAGCCCCUGUCAGAUUCUGGUGAAUCUGCGAAUUCUGCUGUACAUCUC [U1C U76C], for which the self-cleavage was 0.8. With CAACAGGGGGCCACAGCAGAAGCGUUCACGUCGCAGCCCCUGUCAGAUUCUGGUGAAUCUGCGAAUUCUGCUGUAAAUCUC [U1C U76A], the self-cleavage was found to be 0.78.

For the variant GGACAGGGGGCCACAGCAGAAGCGUUCACGUCGCAGCCCCUGUCAGAUUCUGGUGAAUCUGCGAAUUCUGCUGUAUAUCUC [U1G A2G], the self-cleavage turned out to be 0.95. In the case of CAACAGGGGGCCACAGCAGAAGCGUUCACGUCGCAACCCCUGUCAGAUUCUGGUGAAUCUGCGAAUUCUGCUGUAUAUCUC [U1C G36A], the self-cleavage came out at 0.21.

With CAACAGGGGGCCACAGCAGAAGCGUUCACGUCGCACCCCCUGUCAGAUUCUGGUGAAUCUGCGAAUUCUGCUGUAUAUCUC [U1C G36C], the self-cleavage is 0.2. Consider CAACAGGGGGCCACAGCAGAAGCGUUCACGUCGCAGCCCCUGUCAGAUUCUAGUGAAUCUGCGAAUUCUGCUGUAUAUCUC [U1C G52A], for which the self-cleavage was 1. In the case of CAACAGGGGGCCACAGCAGAAGCGUUCACGUCGCAGCCCCUGUCAGAUUCUGUUGAAUCUGCGAAUUCUGCUGUAUAUCUC [U1C G53U], the self-cleavage was found to be 0.72.

Turning to CAACAGGGGGCCACAGCAGAAGCGUUCACGUCGCAGCCCCUGUCAGAUUCUGAUGAAUCUGCGAAUUCUGCUGUAUAUCUC [U1C G53A], the self-cleavage stood at 0.98. With CAACAGGGGGCCACAGCAGAAGCGUUCACGUCGCAGCCCCUGUCAGAUUCUGGUGAAUCUGCGAAUUCUGCUUUAUAUCUC [U1C G73U] the figure was 1.08; with CAACAGGGGGCCACAGCAGAAGCGUUCACGUCGCAGCCCCGGUCAGAUUCUGGUGAAUCUGCGAAUUCUGCUGUAUAUCUC [U1C U41G], 0.53. The figure for CAACAGGGGGCCACAGCAGAAGCGUUCACGUCGCAGCCCCAGUCAGAUUCUGGUGAAUCUGCGAAUUCUGCUGUAUAUCUC [U1C U41A] is 0.21; for CAACAGGGGGCCACAGCAGAAGCGUUCACGUCGCAGCCCCCGUCAGAUUCUGGUGAAUCUGCGAAUUCUGCUGUAUAUCUC [U1C U41C] it is 0.87. For the variant CAACAGGGGGCCACAGCAGAAGCGUUCACGUCGCAGCCCCUGUCAGAUUCUGGUGAAUCUGCGAAUCCUGCUGUAUAUCUC [U1C U67C], the self-cleavage stood at 0.26. Take CAACAGGGGGCCACAGCAGAAGCGUUCACGUCGCAGCCCCUGUCAGAUUCUGGUGAAUCUGCGAAUACUGCUGUAUAUCUC [U1C U67A]: the self-cleavage was found to be 0.4. The figure for CAACAGGGGGCCACAGCAGAAGCGUUCACGUCGCAGCCCCUGUCAGAUUCUGGUGAAUCUGCGAAUGCUGCUGUAUAUCUC [U1C U67G] is 0.22; for CAACAGGGGGCCACAGCAGAAGCGUCCACGUCGCAGCCCCUGUCAGAUUCUGGUGAAUCUGCGAAUUCUGCUGUAUAUCUC [U1C U26C] it is 0.38. On to CAACAGGGGGCCACAGCAGAAGCGUACACGUCGCAGCCCCUGUCAGAUUCUGGUGAAUCUGCGAAUUCUGCUGUAUAUCUC [U1C U26A], for which the self-cleavage came to 0.81.

On to CAACAGGGGGCCACAGCAGAAGCCUUCACGUCGCAGCCCCUGUCAGAUUCUGGUGAAUCUGCGAAUUCUGCUGUAUAUCUC [U1C G24C], for which the self-cleavage came out at 0.31.

As to CAACAGGGGGCCACAGCAGAAGCGUUCACGUCACAGCCCCUGUCAGAUUCUGGUGAAUCUGCGAAUUCUGCUGUAUAUCUC [U1C G33A], the self-cleavage was 0.32.

Regarding GAACAGGGGGCCACAGCAGAAGCGUUCGCGUCGCAGCCCCUGUCAGAUUCUGGUGAAUCUGCGAAUUCUGCUGUAUAUCUC [U1G A28G], the self-cleavage came out at 0.55. With GAACAGGGGGCCACAGCAGAAGCGUUCCCGUCGCAGCCCCUGUCAGAUUCUGGUGAAUCUGCGAAUUCUGCUGUAUAUCUC [U1G A28C], the self-cleavage was 0.6.

As to GAACUGGGGGCCACAGCAGAAGCGUUCACGUCGCAGCCCCUGUCAGAUUCUGGUGAAUCUGCGAAUUCUGCUGUAUAUCUC [U1G A5U], the self-cleavage is 0.98. With CAACAGGGGGCCACAGCAGAAGCGUUCACGUCGCAGCCCCUGUCAGAUUCUGGUGAAUCUGCGAACUCUGCUGUAUAUCUC [U1C U66C], the self-cleavage came to 0.39.

As for GAACAGGGGGCCACAGCAGAAGCGUUCACGUCGCGGCCCCUGUCAGAUUCUGGUGAAUCUGCGAAUUCUGCUGUAUAUCUC [U1G A35G], the self-cleavage turned out to be 1.25. Turning to GAACAGGGGGCCGCAGCAGAAGCGUUCACGUCGCAGCCCCUGUCAGAUUCUGGUGAAUCUGCGAAUUCUGCUGUAUAUCUC [U1G A13G], the self-cleavage was 0.66. In the case of CAACAGGGGGCCACAGCAGAAGCGUUCACGUCGCAGCCCCUGUCAGAUUCUGGUGAAUCUGCGAAUUCUGCUGCAUAUCUC [U1C U74C], the self-cleavage was 1.21. With CAACAGGGGGCCACAGCAGAAGCGUUCACGUCGCAGCCCCUGUCAGAUUCUGGUGAAUCUGCGAAUUCUGCUGAAUAUCUC [U1C U74A], the self-cleavage is 1.21. Take CAACAGGGGGCCACAGCAGAAGCGUUCACGUCGCAGCCCCUGUCAGAUUCUGGUGAAUCUGCGAAUUCUGCUGGAUAUCUC [U1C U74G]: the self-cleavage came out at 1.19.
